Test results as given in the nanobody polyreactivity screen of Harvey et al. (2022).

Test: yeast display, Sf9 membrane polyspecificity reagent, FACS + sequencing; frameworks hold sequencing errors
In short: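 Sorting gates, low and high (top ~1%), were placed on anti-HA fluorescence to track expression and on streptavidin fluorescence to track reagent binding. A clone's polyreactivity label is taken from the gate it came out of. The reagent was 10% biotinylated, detergent-solubilized Sf9 membrane, applied for 1 hour at 4 °C to galactose-induced yeast display cells.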

Row | Sequence | polyreactivity (PSR sort gate)
1 | QVQLVESGGGLVQAGGSLRLSCAASGSIIKYYAMGWYRQAPGKEREFVAAITASSSRTYYADSVKGRFTISRDNAKNKVYLQMNSLKPEDTAVYYCAAVGPGRRRDYWGQGTQVTVSS | high polyreactivity
2 | QVQLVESGGGLVQAGGSLRLSCAASGRIFYINAMGWYRQAPGKERELVAAISWSGSSTYYADSVKGRFTISRDNAKNTVYLQMNSLKPEDTAVYYCAAVSYKRVDYWGQGTQVTVSS | high polyreactivity
3 | QVQIVESVGGLVQAGGSLRLSCAASGSTFSGYAKGWYRQAPGKERELVAAISWRGVRTYYADSVKGRFTISRDNAKNTVYLQMNSLKPEDTAVYYCAAVRYIPKEFYWGQGTQVTVSS | high polyreactivity
4 | QVQLVESGGGLVQAGGRLRLSCAASGSIFYHYAMGWSRQAPGKERELVAAISQSGGGTYYADSVKGRFTISRDYAKNTVYLQMNSLKPEDTAVYYCAADRTGPYDYWGQGTQVTVSS | high polyreactivity
5 | QVQQQESGGGLVQAGGSLRRSCAASGSIFSHWAMGWYRQTPGKERELVASITAGGNNNYADSVKGRFTISRDNAKNTVYLPMNSLKPEDTAVYYCNRRYPGPDSFEHYYYYRYDYWGQGTQVTVSS | low polyreactivity
6 | QVQLVESGGGLVQAGGSLRLSCADSGFTFRYNAMGWYRQAPGKERELVAAISRSGGRTYYADSVKGRFTISRDNAKNTVYLQMNSLKPEDSAVYYCAAVAARITGYGYWGQGTQVTVSS | high polyreactivity
7 | QVQLVESGGGLVQAGGSLRLSCAASGSTFWYYTMGWYRQAPGKERELVATISWRGGRTTYADSVKGRFTISRDNAKNTVYLQMNSLKPEDTAVYYCNAERFPGYGGPSRYLYQEYVYWGQGTQVTVSS | low polyreactivity
8 | QVQLVESGGGLVQAGGSLRLSCAASGNTFSTNAMGWYRHAPGKERELVASISTNGGSTYYADSVKGRFTISRDNAKQTVYLQKNSLKPEDTAVYYCAAYVDWGVWAYLYEYWGQGTQVTVSS | low polyreactivity
9 | QVQLVESGGGLVQAGGSLRLICAASGRIFVYYAMGWYRQAPGKERELVAAISSGGSTYYADSVKGRFTISRDNAKNTVYLQMNSLKPEDTAVYYCAADPQRGRRIGYYWGQGTQVTVSS | low polyreactivity
10 | QVQLVESGGGLVQAGGSLRLSCAASGFTFRIYAMGWYRQAPGKERELVAAITSSGGTTYYADSVKGRFTISRDNAKNTVYLQMNSLKPEDTAVYYCNVAGFKYYSWGTYDYWGQGTQVTVSS | high polyreactivity
11 | QVQLVESGGGLVQAGGSLRLSCAASGRIRRYTMGWYRQAPGKVRELVASISGNGGSTYYADSVKGRFTISRDNAKNTVYLQMNSLKPEDTAVYYCARTKQEYTFGQFYLGDYWGQGTQVTVSS | low polyreactivity
12 | QVQLVESGGGLVQAGGSLRLSCAASGLIFYYNAMGWYRQAPGKERELVAAISSDGTTDYADSVKGRFTISRDNAKNTVYLQMNSLKPEDTAVYYCNADKAVKLSGYGRADYDYWGQGTQVTVSS | low polyreactivity
13 | QVQLVESGGGLVQAGGSLRLSCAASGSTFFTNAMGWYRQAPGKERELVAAINFRGSTYYADSVKGRFTISRDNAKNTVYLQMNSLKPEDTAVYYCATDRQRSYRTVRSPIFNYWGQGTQVTVSS | high polyreactivity
14 | QDQLVDSGGGIVQAGGILSYSCDPSGSNVRYNAMGWYRQAPGKERELVAGIRGSGGITYYADSVKGRFTISRDNAKNTVYLQMNSLKPEDSAVYYCAADVVVCSYQEDHSWGQGTQVTESS | low polyreactivity
15 | QVQLVESGGGLVQAGGSLSLSCAASGLTFQEYAMRWYRQAPGKERELVAAISWSGGSTYYADSVKGRFTISRDNAKNTVYLQMNSLKPEDTAVYYCAAEAYEEYITGWYAYDYWGQGTQVTVSS | high polyreactivity
16 | QVQLVESGGGLVQAGGSLRLSCAASGFIFHYNAMGWYRQAPGKERELVAAISARGGGTYYADSVKGRFTISRDNAKNTVYLQMNSLKPEDTAVYYCAAGNYPLGDGYWGQGTQVTVSS | high polyreactivity
17 | QVQLVESGGGLVQAGGSLRLSCAASGITFKYTAMGWYRQAPGKERELVAAISRRGGRTYYADSVKGRFTISRDNAKNTVYLQMNSLKPEDTAVYYCNVETWSVGGREYDYWGQGTQVTVSS | high polyreactivity
18 | QVQLVESGGGLVQAGGSLRLSCAASGSIFKYYAMGWYRQAPGTERELVAAISTGGTTNYADSVKGRFTISRDNAKNTVYLQMNSLKPEDTAVYYCNRDYLVRSRYKYYYWGQGTQVTVSS | low polyreactivity
19 | QVQLVESGGGLVQAGGSLRLSCAASGFTFPWYAMGWDRQAPGKERELVASISYRGDSTYYADSVKGRFTFSRDNAKNTVYLQMNSLKPEDTAVYYCNKRLASYYLPGFDYWGQGTQVSVSS | low polyreactivity
20 | QVQLVESGGGLVQAGGSLRISCAASGSTFKIYAMGWYRQAPGKERELVAAITGGGSSTYYADSVKGRFTISRDNSKNTVYLQMNSLKPEDTAVYYCAADLSGADSTGDYYYWGQGTQVTVSS | low polyreactivity
21 | QFQLVESGGGLVQAGGSLRLSCAASGFIDNTMGWYRQAPGKQRELVATISWSDGSTYYADSVKGRFTISRDNAKITVYLLMNSLKPEDTAVYYCAATTDALVGRPRYDYWGQGTQVTVSS | low polyreactivity
22 | QVQLVESGGGLVQAGGSLRLRCAASGFTFFAYALGWYRQAPGKESELVAGISRSGGRTYYADSVKWRFTISRDNAKNTVYLQMNSLKPEDTAVYYCAAGIPVTSRHLGYWGQGTQVTVSS | high polyreactivity

Row | Sequence | polyreactivity (PSR sort gate)
23 | QVQLVESGGGLVQAGGSLRLSCAASGFIFRGYAMGWYRQAPGKERELVAAITSSGGDTYYADSVKGRFTISRDNAKNTVYLQMNSLKPEDTAVYYCAKRARRIGDVNMGSWGQGTQVTVSS | low polyreactivity
24 | QVQLVESGGGLVQAGGSLRLSCAASGIFVYYAMGWYRQSPGKERELVAAISSSGGSTYYADSVKGRFTISRDNAKNTVYLQMNSLKREDTAVYYCNTLAYPSDRFEYWGQGTQVTVSS | high polyreactivity
25 | QVHLVESGGGLVQAGGSLRLSCAASGSTLHYYTMGWYRQEPGKERELVAAITSGGSTHYADSVKGRFTISRDNAKNTVYLQMNSLKPEDTAVYYCAVKTGKWIPRDYWGQGTQVTVSS | low polyreactivity
26 | QVQLLESGGGLVPSRGSLRLSCAASGFTFAHYAMGWYRQAPGKERELVAAISGSGSSTYYADSVKGRFTISRDNAKNNVYLQMNSLKPEDTADYYCNVRWYFLYDYWGQGTQVTVSS | low polyreactivity
27 | QVQLVESGGGLVQAGGSLRLSCAASGSTLARNVMGWYRQAPGKERELVAAISTSGGITYYADSVKGRFTISRDNAKNTVYLQMNSLKPEDTADYYCAKYYYNPYSKMDYWGQGTQVTVSS | low polyreactivity
28 | QVQLVESGGGLVQAGGSLRLSCAASGSIFWQNAMGWYRQAPGKERELVAAISRNGGSTNYADSVKGRFTISRDNAKNTVYLQMNSLKPEDTAVYYCAAVGTVSRTVGYNYWGQGTQVTVSS | high polyreactivity
29 | QVQLVESWGGLVQAGGSLRLSCAASGLIFVGNAMGWYRQAPGKERELVAAISSRGGRTYYADSVKGRFTISRDNAKNTVYLQMNSLKPEDTAVYYCAARVWRYPYYWGQGTQVTVSS | high polyreactivity
30 | QVQLVESGGGLVQAGGSLRLSCAASGRTFYKYMGWYRQAPGKERELVAAIRWSGGSTYYADSVKGRFTISRDNAKNTVYLQMNSLKPEDTAVYYCAAGKQAPAVNYGYYYWGQGTQVTVSS | low polyreactivity
31 | QVQLVESGGGLVQAGGSLRLSCAASGSTLEFNAMGWYRQAPGKERELVAVINRSDGSTYYADSVKGRFTISRDNAKNTVYLQMNSLKPEDTADYYCAADRHQVSVISTEDYWGQGTQVTVSS | low polyreactivity
32 | QVQLVESGGGLVQAGGSLRLSCAASGYISYYYAMGWYREAPGKEREFVAGISWSGGSTYYADPVKGRFTISRDNAKNTVYLQMNSLKPEDTAVYDCAARLSRWWPPTGVHYSDRYYGGQGTQVTVSS | high polyreactivity
33 | QVQLVESGGGLVQAGGRLRLTCAASGCTFFTNSMGWYRQAPGKERELFGAITVSGSTYYADSVKGRFTFSRDNAKNTVYLQMNSLNPEDTAVYYCAAVFWRRQYGYYIFTTLDYWGHGTQVTVSS | high polyreactivity
34 | QVQLVESGGGLVQAGGSLRLRCAASGLIFPYNAMGWYRQAPGKERELVAAIDTRGSSTYYADSVKGRFTISRDNAKNTVYLQMNSLKPEDSAVYYCNARTGRSPTGFRYWGQGTEVTVSS | high polyreactivity
35 | QVQLVESGGGLVQAGGSLRLSCAASGFTFDIYGMGWYRQAPGKERELVASITSRSARTYYADSVKGRFTISRYNAKNTVYLQMNSLKPEDTAVYYCAADTTIKRKYLAIRGYWGQGTQVTVSS | high polyreactivity
36 | QVQLVESGRGLVQAGGSLRLSCHASGFTFSPYTMGWSRQAPGKERELVATIRYDCTSTYYADSVKGRFTISRDNAKNTVYLQMNSLKPEDTAVYYCAADIWRVYSTFYYWGQGTEVTVSS | low polyreactivity
37 | QVQLVESGGGLVQAGGSLRLSCAASGRIFGGNAMGWSRQAPGKERELVAAISWSGGSTYADSVKGRFTISRDNAKNTVYLQMNSLKPEDTAVYYCATRLVKYYYYDYRTYGRRYDYWGQGTQVTVSS | high polyreactivity
38 | QVQLVESGGGLVQAGGSLRLSCAASGSIFPLNDMGWYRQAPGKERELVAAITIGGSTYYADSVKGRFTISRDNAKNTVYLQMNSLKPEDTAVYYCAKVGELSYRYDYWGQGTQVTVSS | high polyreactivity
39 | QVPLVESGGGLVQAGGSLRLSCAASGFIFPNYVMGWYRQEPGKEREFVAGISVRGGRTYYADSVKGRFTISRDNAKNTVYLQMNSLKPEDTAVYYCAADRKASAFNYWGQGTQVTVSS | high polyreactivity
40 | QVQLVQSGGGLVQAGGSLRLSCAASGSTFPTNAMGSYRQAPGKERELVAAISSSGGRTYYADSVKGRFTISRDNAKKTDYLQRNSLKPEDTAVYYCAAVWWRAYAVRMYYWGQGTQVTVSS | high polyreactivity
41 | QVQLVESGGGLVQAGGSLRLSCAASGRTFQRNAMGWYRQAPGKERELVAAITSGSRTNYADSVKGRFTISRDNAKNTVFLQMNSLKPEDTAVYYCAADYTWRNNYWGQGTQVTVSS | high polyreactivity
42 | QVQLVESGGGLVQAGGSLRLSCAASGRISQTNAMGWYRQAPGKERELVAAISWRGGSTYYADSVKGRFTISRDNAKNTVYLQMNSLKPEDTAVYYCAVRGKYDRHYYWGQGTQVTVSS | high polyreactivity
43 | QVQLVESGGGLVQAGGSLRLSCAASGSTFQFYAMGWYRQAPGKERELVAAISVSGDRTYYADSVKARFTISRDNAKNTVYLQMNSLKPEDSAVYYCAARYGPFKRRFDYWGLGTQVTVSS | high polyreactivity
